B1: wild-type 14-3-3γ-3xHA [human] / GFP-SLP76 [human] (parent)
chain 1: MVDREQLVQKARLAEQAERYDDMAAAMKNVTELNEPLSNEERNLLSVAYKNVVGARRSSWRVISSIEQKTSADGNEKKIEMVRAYREKIEKELEAVCQDVLSLLDNYLIKNCSETQYESKVFYLKMKGDYYRYLAEVATGEKRATVVESSEKAYSEAHEISKEHMQPTHPIRLGLALNYSVFYYEIQNAPEQACHLAKTAFDDAIAELDTLNEDSYKDSTLIMQLLRDNLTLWTSDQQDDDGGEGNN
chain 2: MALRNVPFRSEVLGWDPDSLADYFKKLNYKDCEKAVKKYHIDGARFLNLTENDIQKFPKLRVPILSKLSQEINKNEERRSIFTRKPQVPRFPEETESHEEDNGGWSSFEEDDYESPNDDQDGEDDGDYESPNEEEEAPVEDDADYEPPPSNDEEALQNSILPAKPFPNSNSMYIDRPPSGKTPQQPPVPPQRPMAALPPPPAGRNHSPLPPPQTNHEEPSRSRNHKTAKLPAPSIDRSTKPPLDRSLAPFDREPFTLGKKPPFSDKPSIPAGRSLGEHLPKIQKPPLPPTTERHERSSPLPGKKPPVPKHGWGPDRRENDEDDVHQRPLPQPALLPMSSNTFPSRSTKPSPMNPLPSSHMPGAFSESNSSFPQSASLPPYFSQGPSNRPPIRAEGRNFPLPLPNKPRPPSPAEEENSLNEEWYVSYITRPEAEAALRKINQDGTFLVRDSSKKTTTNPYVLMVLYKDKVYNIQIRYQKESQVYLLGTGLRGKEDFLSVSDIIDYFRKMPLLLIDGKNRGSRYQCTLTHAAGYP

Variants of: B1
Assay: co-immunoprecipitation, quantified Western blot
Details: with GFP-SLP76 [human]; N2a cells; read off a plot

ratio to parent (fold of wild-type)	Variant
0.2	chain 1 R57C
